Data from PMC11591715 (2024).

Assays:
Assay in all cases: BLI
[1] = target: T1, m801.3 (anti-EpCAM-IL-2v immunocytokine, 1 anti-EpCAM Fab + 1 IL-2v, IL-2v fused at the N-terminus of the Fc … ( | human, UniProt P60568 21-153, F42A | Y45A | L72G))
[2] = target: m801.2 (anti-EpCAM-IL-2v immunocytokine, 2 anti-EpCAM Fab + 1 IL-2v, IL-2v fused at the C-terminus of IgG1 Fc) (human | , UniProt P60568 21-153, F42A | Y45A | L72G)
[3] = target: T1, m801.3 (anti-EpCAM-IL-2v …); remark: listed apart in the source

Kd [1]: 55.6 nM | koff [2]: 0.00412 s⁻¹ | koff [3]: 0.00784 s⁻¹
B1: IL-2 receptor β subunit (IL-2Rβ) (receptor)
chain: AVNGTSQFTCFYNSRANISCVWSQDGALQDTSCQVHAWPDRRRWNQTCELLPVSQASWACNLILGAPDSQKLTTVDIVTLRVLCREGVRWRVMAIQDFKPFENLRLMAPISLQVVHVETHRCNISWEISQASHYFERHLEFEARTLSPGHTWEEAPLLTLKQKQEWICLETLTPDTQYEFQVRVKPLQGEFTTWSPWSQPLAFRTKPAALGKDTIPWLGHLLVGLSGAFGFIILVYLLINCRNTGPWLKKVLKCNTPDPSKFFSQLSSEHGGDVQKWLSSPFPSSSFSPGGLAPEISPLEVLERDKVTQLLLQQDKVPEPASLSSNHSLTSCFTNQGYFFFHLPDALEIEACQVYFTYDPYSEEDPDEGVAGAPTGSSPQPLQPLSGEDDAYCTFPSRDDLLLFSPSLLGGPSPPSTAPGGSGAGEERMPPSLQERVPRDWDPQPLGPPTPGVPDLVDFQPPPELVLREAGEEVPDAGPREGVSFPWSRPPGQGEFRALNARLPLNTDAYLSLQELQGQDPTHLV
modifications: biotin (biotinylated antigen)
